Where “and” joins values, the source holds several entries; their conditions need not be identical. Identical values can stand only once.
B1: Neurotensin receptor type 1, P20789 (parent)
chain: MHLNSSVPQGTPGEPDAQPFSGPQSEMEATFLALSLSNGSGNTSESDTAGPNSDLDVNTDIYSKVLVTAIYLALFVVGTVGNSVTAFTLARKKSLQSLQSTVHYHLGSLALSDLLILLLAMPVELYNFIWVHHPWAFGDAGCRGYYFLRDACTYATALNVASLSVERYLAICHPFKAKTLMSRSRTKKFISAIWLASALLAIPMLFTMGLQNRSGDGTHPGGLVCTPIVDTATVKVVIQVNTFMSFLFPMLVISILNTVIANKLTVMVHQAAEQGRVCTVGTHNGLEHSTFNMTIEPGRVQALRHGVLVLRAVVIAFVVCWLPYHVRRLMFCYISDEQWTTFLFDFYHYFYMLTNALFYVSSAINPILYNLVSANFRQVFLSTLACLCPGWRHRRKKRPTFSRKPNSMSSNHAFSTSATRETLY

Variants of: B1
Conditions: Rattus norvegicus; pH 7.4; Heat treatment; Activity; Tris-HCl 50 mM; structure 4BUO; whole UniProt chain shown

Variant | Tm [°C] | change of melting temperature, mutant - wild type (higher = more stable) [°C]
MHLNSSVPQGTPGEPDAQPFSGPQSEMEATFLALSLSNGSGNTSESDTAGPNSDLDVNTDIYSKVLVTAIYLALFVVGTVGNSVTLFTLARKKSLQSLQSTVAYHLGSLALSDLLILLLAMPVELYNFIWVHHPWAFGDAGCRGYYFLRDACTYATALNVASLSVERYLAICHPFKAKTLMSRSRTKKFISAIWLASALLAIPMLFTMGLQNRSGDGTHPGGLVCTPIVDTATVKVVIQVNTFMSFLFPMLVISILNTVIANKLTVMVHQAAEQGRVCTVGTHNGLEHSTFNMTIEPGRVQALRHGVLVLRAVVIAFVVCWLPYHVRRLMFCYISDEQWTTFLFDFYHYFYMLTNALAYVSSAINPILYNLVSANFRQVFLSTLACLCPGWRHRRKKRPTFSRKPNSMSSNHAFSTSATRETLY [F358A A86L H103A] | 48 | –
MHLNSSVPQGTPGEPDAQPFSGPQSEMEATFLALSLSNGSGNTSESDTAGPNSDLDVNTDIYSKVLVTAIYLALFVVGTVGNSVTLFTLARKKSLQSLQSTVAYHLGSLALSDLLILLLAMPVELYNFIWVHHPWAFGDAGCRGYYFLRDACTYATALNVASLSVERYLAICHPFKAKTLMSRSRTKKFISAIWLASALLAIPMLFTMGLQNRSGDGTHPGGLVCTPIVDTATVKVVIQVNTFMSFLFPMLVISILNTVIANKLTVMVHQAAEQGRVCTVGTHNGLEHSTFNMTIEPGRVQALRHGVLVLRAVVIAFVVCWLPYHVRRLMFCYISDEQWTTALFDFYHYFYMLTNALAYVSSAINPILYNLVSANFRQVFLSTLACLCPGWRHRRKKRPTFSRKPNSMSSNHAFSTSATRETLY [F358A A86L H103A F342A] | 50 | –
MHLNSSVPQGTPGEPDAQPFSGPQSEMEATFLALSLSNGSGNTSESDTAGPNSDLDVNTDIYSKVLVTAIYLALFVVGTVGNSVTLFTLARKKSLQSLQSTVAYHLGSLALSDLLILLLAMPVELYNFIWVHHPWAFGDAGCRGYYFLRDACTYATALNVASLSVERYLAICHPFKAKTLMSRSRTKKFISAIWLASALLAIPMLFTMGLQNRSGDGTHPGGLVCTPIVDTATVKVVIQVNTFMSFLFPMLVISILNTVAANKLTVMVHQAAEQGRVCTVGTHNGLEHSTFNMTIEPGRVQALRHGVLVLRAVVIAFVVCWLPYHVRRLMFCYISDEQWTTFLFDFYHYFYMLTNALAYVSSAINPILYNLVSANFRQVFLSTLACLCPGWRHRRKKRPTFSRKPNSMSSNHAFSTSATRETLY [F358A A86L H103A I260A] | 49 | –
MHLNSSVPQGTPGEPDAQPFSGPQSEMEATFLALSLSNGSGNTSESDTAGPNSDLDVNTDIYSKVLVTAIYLALFVVGTVGNSVTLFTLARKKSLQSLQSTVAYHLGSLALSDLLILLLAMPVELYNFIWVHHPWAFGDAGCRGYYFLRDACTYATALNVASLSVERYLAICHPFKAKTLMSRSRTKKFISAIWLASALLAIPMLFTMGLQNRSGDGTHPGGLVCTPIVDTATVKVVIQVNTFMSFLFPMLVISILNTVAANKLTVMVHQAAEQGRVCTVGTHNGLEHSTFNMTIEPGRVQALRHGVLVLRAVVIAFVVCWLPYHVRRLMFCYISDEQWTTALFDFYHYFYMLTNALAYVSSAINPILYNLVSANFRQVFLSTLACLCPGWRHRRKKRPTFSRKPNSMSSNHAFSTSATRETLY [F358A A86L H103A I260A F342A] | 50 | –
MHLNSSVPQGTPGEPDAQPFSGPQSEMEATFLALSLSNGSGNTSESDTAGPNSDLDVNTDIYSKVLVTAIYLALFVVGTVGNSVTLFTLARKKSLQSLQSTVHYHLGSLALSDLLILLLAMPVELYNFIWVHHPWAFGDAGCRGYYFLRDACTYATALNVASLSVERYLAICHPFKAKTLMSRSRTKKFISAIWLASALLAIPMLFTMGLQNRSGDGTHPGGLVCTPIVDTATVKVVIQVNTFMSFLFPMLVISILNTVAANKLTVMVHQAAEQGRVCTVGTHNGLEHSTFNMTIEPGRVQALRHGVLVLRAVVIAFVVCWLPYHVRRLMFCYISDEQWTTFLFDFYHYFYMLTNALAYVSSAINPILYNLVSANFRQVFLSTLACLCPGWRHRRKKRPTFSRKPNSMSSNHAFSTSATRETLY [F358A A86L I260A] | 49 | –
MHLNSSVPQGTPGEPDAQPFSGPQSEMEATFLALSLSNGSGNTSESDTAGPNSDLDVNTDIYSKVLVTAIYLALFVVGTVGNSVTAFTLARKKSLQSLQSTVAYHLGSLALSDLLILLLAMPVELYNFIWVHHPWAFGDAGCRGYYFLRDACTYATALNVASLSVERYLAICHPFKAKTLMSRSRTKKFISAIWLASALLAIPMLFTMGLQNRSGDGTHPGGLVCTPIVDTATVKVVIQVNTFMSFLFPMLVISILNTVAANKLTVMVHQAAEQGRVCTVGTHNGLEHSTFNMTIEPGRVQALRHGVLVLRAVVIAFVVCWLPYHVRRLMFCYISDEQWTTALFDFYHYFYMLTNALAYVSSAINPILYNLVSANFRQVFLSTLACLCPGWRHRRKKRPTFSRKPNSMSSNHAFSTSATRETLY [F358A H103A I260A F342A] | 50 | –
MHLNSSVPQGTPGEPDAQPFSGPQSEMEATFLALSLSNGSGNTSESDTAGPNSDLDVNTDIYSKVLVTAIYLALFVVGTVGNSVTAFTLARKKSLQSLQSTVHYHLGSLALSDLLILLLAMPVELYNFIWVHHPWAFGDAGCRGYYFLRDACTYATALNVASLSVERYLAICHPFKAKTLMSRSRTKKFISAIWLASALLAIPMLFTMGLQNRSGDGTHPGGLVCTPIVDTATVKVVIQVNTFMSFLFPMLVISILNTVIANKLTVMVHQAAEQGRVCTVGTHNGLEHSTFNMTIEPGRVQALRHGVLVLRAVVIAFVVCWLPYHVRRLMFCYISDEQWTTFLFDFYHYFYMLTNALAYVSSAINPILYNLVSANFRQVFLSTLACLCPGWRHRRKKRPTFSRKPNSMSSNHAFSTSATRETLY [F358A] | – | 7

Same assay, conditions: Rattus norvegicus; pH 7.4; Thermal; Activity; Tris-HCl 50 mM; structure 4BUO; whole UniProt chain shown

Variant | change of melting temperature, mutant - wild type (higher = more stable)
MHLNSSVPQGTPGEPDAQPFSGPQSEMEATFLALSLSNGSGNTSESDTAGPNSDLDVNTDIYSKVLVTAIYLALFVVGTVGNSVTAFTLARKKSLQSLQSTVHYHLGSLALSDLLILLLAMPVELYNFIWVHHPWAFGDAGCRGYYFLRDACTYATALNVASLSVERYLAICHPFKAKTLMSRSRTKKFISAIWLASALLAIPMLFTMGLQNRSGDGTHPGGLVCTPIVDTATVKVVIQVNTFMSFLFPMLVISILNTVIANKLTVMVHQAAEQGRVCTVGTHNGLEHSTFNMTIEPGRVQALRHGVLVLRAVVIAFVVCWLPYHVRRLMFCYISDEQWTTFLFDFYHYFYMLTNALAYVSSAINPILYNLVSANFRQVFLSTLACLCPGWRHRRKKRPTFSRKPNSMSSNHAFSTSATRETLY [F358A] | 3 °C and 8 °C

From FireProtDB (doi:10.1016/j.jmb.2009.04.068)
